Test results as given in patent US20180186890A1 (UNITED STATES OF AMERICA AS REPRESENTED BY THE SECRETARY …, published 2018).

Target: T1, mouse CD276 expressed on the cell surface (mouse, UniProt Q8VE98 29-316)
T1 construct: whole, on cells; also called CHO-msCD276; host CD276 on tumor vasculature of CD276 WT mice
T1 sequence (looked up): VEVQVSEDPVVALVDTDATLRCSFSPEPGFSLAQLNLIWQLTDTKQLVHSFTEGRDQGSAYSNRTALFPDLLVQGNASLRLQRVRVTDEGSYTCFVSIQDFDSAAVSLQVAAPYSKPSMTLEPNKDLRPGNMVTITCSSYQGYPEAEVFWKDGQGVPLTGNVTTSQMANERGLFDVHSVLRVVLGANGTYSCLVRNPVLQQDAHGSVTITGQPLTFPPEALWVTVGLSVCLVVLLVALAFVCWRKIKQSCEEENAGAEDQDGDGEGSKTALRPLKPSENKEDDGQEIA
Experiment: immunofluorescence of tumor vasculature after IP injection; no green staining in CD276 KO mice

binding result: binds
B1: FITC-labeled human anti-CD276 antibody m8524 IgG1 (antibody, V domains shown)
VH: QVQLQQSGAEVKKPGSSVKVSCKASGGTFSSYAISWVRQAPGQGLEWMGGIIPILGIANYAQKFQGRVTITADESTSTAYMELSSLRSEDTAVYYCARGGSGSYHMDVWGKGTTVTVSS
VL: EIVLTQSPATLSLSPGERATLSCRASQSVSSYLAWYQQKPGQAPRLLIYDASNRATGIPARFSGSGSGTDFTLTISSLEPEDFAVYYCQQRSNWPPRITFGQGTRLEIK
modifications: FITC-labeled antibody (site not stated)
notes: IgG1; also called anti-CD276 mAb
